Assay [1] addresses SARS-CoV-2 peptide on HLA-A*02:01 (human). The assay can be described thus: barcoded tetramer library on ex vivo CD8+ T cells, single-cell sequencing; T cell clone or line. The conditions noted are these: chains Valpha:Vbeta.
The target of assay [2] is T1, I-Ab (mouse), P14434.
T1 chain 1: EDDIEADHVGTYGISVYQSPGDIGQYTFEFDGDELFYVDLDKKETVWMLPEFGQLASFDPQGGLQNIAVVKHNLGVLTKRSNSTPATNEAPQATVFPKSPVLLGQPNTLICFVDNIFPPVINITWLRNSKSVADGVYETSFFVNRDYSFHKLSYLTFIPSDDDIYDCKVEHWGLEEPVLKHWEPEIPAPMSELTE
T1 chain 2: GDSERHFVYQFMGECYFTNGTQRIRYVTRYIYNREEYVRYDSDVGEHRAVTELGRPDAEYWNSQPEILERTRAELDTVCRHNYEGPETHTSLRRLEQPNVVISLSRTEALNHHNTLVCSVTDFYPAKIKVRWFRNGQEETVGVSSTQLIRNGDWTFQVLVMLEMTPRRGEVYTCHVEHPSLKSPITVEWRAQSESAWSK
The experiment in a line: biochemically tested I-Ab binding affinity (method not told).

Assay [3] addresses DRB01*04:04. The conditions noted are these: chains peptide; modification not given.
In assay [4] the target is DRB01*15:01. The conditions noted are these: chains peptide; modification not given.
The target of assay [5] is DRB1*15:01. As to conditions: modification not given.
Assay [6] deals with DRB01*04:04. As to conditions: chains peptide; modification not given. This is another data set of the same source.
Assay [7] has as its target DRB01*11:01. The conditions noted are these: chains peptide; modification not given.
The target in assay [8] is DRB01*07:01. As to conditions: chains peptide; modification not given.
Assay [9] concerns the target DRB01*15:01. As to conditions: chains peptide; modification not given. This is another data set of the same source.
For assay [10], the target named is DRB01*11:01. As to conditions: modification not given.
The target in assay [11] is DRB01*04:04. The conditions noted are these: modification not given.
The target in assay [12] is DRB01*07:01. As to conditions: modification not given.
The target of assay [13] is DRB1*15:01. The conditions noted are these: modification not given. This is another data set of the same source.
The target in assay [14] is DRB1*07:01. As to conditions: modification not given.
Assay [15] concerns the target DRB1*07:01. The conditions noted are these: modification not given. This is another data set of the same source.
Assay [16] deals with M protein peptide on HLA-A*02:01 (human). The experiment in a line: barcoded tetramer library on ex vivo CD8+ T cells, single-cell sequencing; T cell clone or line. As to conditions: chains Valpha:Vbeta.

Read-outs that look alike come from different tables or passages of the source.

What is called IC50 is the point on the concentration scale where inhibition reaches its midpoint. Higher therefore signals lower potency.

B1: TCR_93 (protein)
chain 1: ILNVEQSPQSLHVQEGDSTNFTCSFPSSNFYALHWYRWETAKSPEALFVMTLNGDEKKKGRISATLNTKEGYSYLYIKGSQPEDSATYLCALDYGQNFVFGPGTRLSVLP
chain 2: DGGITQSPKYLFRKEGQNVTLSCEQNLNHDAMYWYRQDPGQGLRLIYYSQIVNDFQKGDIAEGYSVSREKKESFPLTVTSAQKNPTAFYLCASSIGSREAFFGQGTRLTVV
In assay [1], B1 registered a No. of Cells of 2 cells.

Regarding AWENTTIDLTSEKPA (modifications not checked) […], the IC50 in assay [2] worked out at 10 µM.

As for VILRGHLRIAGHHLGRCDIKDLP [SEQ ID NO 310], the results for the IC50 in [3] and in assay [4] were 1.91 µM and 5.43 µM, respectively.

Turning to STPCNGVEGFNCYFP [… (position 477)], the IC50 in assay [5] was found to be 6.82 µM.

With GAVILRGHLRIAGHHLGR [SEQ ID NO 312], the IC50 turned out to be 9.54 µM in assay [6], 0.383 µM in assay [7], 14.5 µM in assay [8] and 3.22 µM in [9].

As for PKYVKQNTLKLAT [Positive Control …], the IC50 in assay [10] is 0.257 µM; in [11] it was 5.31 µM; in assay [12], 2.32 µM.

In the case of AEIRASANLAATKMS [… (position 1016)], the figures for the IC50 in assay [13] and in assay [14] were 0.578 µM and 0.395 µM, respectively.

In turn, PQIITTDNTFVSGNC [… (position 1112)] yielded a concentration for half-maximal inhibition (IC50) in assay [15] of 7.37 µM. That is a single-digit micromolar value.

B2: TCR_74 (protein)
chain 1: GQNIDQPTEMTATEGAIVQINCTYQTSGFNGLFWYQQHAGEAPTFLSYNVLDGLEEKGRFSSFLSRSKGYSYLLLKELQMKDSASYLCAVRDLGGQKLLFARGTMLKVDL
chain 2: DAGVTQSPTHLIKTRGQQVTLRCSPKSGHDTVSWYQQALGQGPQFIFQYYEEEERQRGNFPDRFSGHQFPNYSSELNVNALLLGDSALYLCASSLGQGSPAGANVLTFGAGSRLTVL
In the case of B2, the No. of Cells in assay [16] stood at 2 cells.

Values taken from US20220033460A1, “IDENTIFICATION AND USE OF T CELL EPITOPES IN DESIGNING DIAGNOSTIC AND THERAPEUTIC APPROACHES FOR COVID-19” (priority 2020, published 2022).
